Data on one molecule can be found in publication PMC7049810, “Outer membrane lipoprotein NlpI scaffolds peptidoglycan hydrolases within multi‐enzyme complexes in Escherichia coli” (The EMBO Journal, 2020).

Data set [1] deals with the molecule itself. The experiment in a line: AUC; sedimentation velocity, 45,000 rpm, 20°C, 25 mM HEPES/NaOH, 150 mM NaCl, pH 7.5; NlpI 0.3-1.2 mg/ml; c(s) model.
For another data set, the target named is T1, PBP7, purified (Escherichia coli, UniProt P0AFI5 26-310, where used as the labelled protein in MST: NT647 RED-NHS dye on amines).
T1 construct: PBP7 (DD-endopeptidase) of E. coli; source: E. coli BL21 (λDE3), purified (HisTrap HP, Superdex 200)
T1 sequence (looked up): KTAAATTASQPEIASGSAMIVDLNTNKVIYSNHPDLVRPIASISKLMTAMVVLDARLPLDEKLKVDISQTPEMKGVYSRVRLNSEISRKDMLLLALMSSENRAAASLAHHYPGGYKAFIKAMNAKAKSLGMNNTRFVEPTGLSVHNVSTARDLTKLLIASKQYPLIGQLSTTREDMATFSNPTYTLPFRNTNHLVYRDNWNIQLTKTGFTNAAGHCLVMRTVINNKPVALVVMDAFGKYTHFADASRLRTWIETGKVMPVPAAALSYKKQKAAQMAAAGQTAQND
Nature of the data set: pull-down; Ni2+-NTA agarose beads; His-tagged protein with untagged or native ligand, overnight at 4°C; 10 mM HEPES/NaOH, 10 mM MgCl2, 150 mM NaCl, 0.05% Triton X-100, pH 7.5; washes with 30 mM imidazole; SDS-PAGE. To be noted: both partners purified.

The target of another data set is T2, MepM (Escherichia coli, UniProt P0AFS9 41-440).
T2 construct: Peptidoglycan endopeptidase MepM of E. coli; source: purified as previously described in Moré et al (2019)
T2 sequence (looked up): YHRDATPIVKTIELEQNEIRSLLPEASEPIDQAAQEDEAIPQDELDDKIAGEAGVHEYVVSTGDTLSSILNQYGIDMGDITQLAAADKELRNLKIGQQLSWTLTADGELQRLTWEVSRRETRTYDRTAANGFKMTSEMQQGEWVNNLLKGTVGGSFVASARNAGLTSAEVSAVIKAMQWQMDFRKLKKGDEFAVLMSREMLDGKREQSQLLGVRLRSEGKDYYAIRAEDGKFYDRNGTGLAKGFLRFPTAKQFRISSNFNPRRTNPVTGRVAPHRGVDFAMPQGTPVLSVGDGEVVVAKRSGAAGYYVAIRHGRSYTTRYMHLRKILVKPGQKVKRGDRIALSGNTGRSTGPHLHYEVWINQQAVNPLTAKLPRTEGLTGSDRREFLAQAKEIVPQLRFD
The experiment in a line: MST; titration: NT647-labelled protein against a two-fold serial dilution (16 steps) of unlabelled ligand; 25 mM HEPES/NaOH, 150 mM NaCl, 0.05% Triton X-100, pH 7.5; Monolith NT.115; apparent constants; for NlpI with itself: dimer to monomers. Conditions: both partners purified.

The target in a further data set is T3, PBP4, native, purified (Escherichia coli, UniProt P24228 21-477, where used as the labelled protein in MST: NT647 RED-NHS dye on amines).
T3 construct: PBP4 (DD-endopeptidase) of E. coli, 'native PBP4' purified after Kishida et al (2006); Untagged ('native'); source: E. coli BL21 (λDE3), purified (HiTrap Q, hydroxyapatite, Superdex 200)
T3 sequence (P24228 21-477): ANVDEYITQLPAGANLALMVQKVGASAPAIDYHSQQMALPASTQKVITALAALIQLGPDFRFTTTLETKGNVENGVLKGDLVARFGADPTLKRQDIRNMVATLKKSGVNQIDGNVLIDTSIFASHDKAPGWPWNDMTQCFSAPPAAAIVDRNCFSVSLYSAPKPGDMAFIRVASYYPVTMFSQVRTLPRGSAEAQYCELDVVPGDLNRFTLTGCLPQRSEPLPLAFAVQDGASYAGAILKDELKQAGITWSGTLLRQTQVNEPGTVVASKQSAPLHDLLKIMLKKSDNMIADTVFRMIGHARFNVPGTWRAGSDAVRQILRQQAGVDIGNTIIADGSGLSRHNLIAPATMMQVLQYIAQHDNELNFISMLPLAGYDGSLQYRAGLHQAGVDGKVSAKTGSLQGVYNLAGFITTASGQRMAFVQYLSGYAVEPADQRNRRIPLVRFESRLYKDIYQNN
The description is as above. Conditions: both partners purified.

Data set [2] deals with the molecule itself. The data set is described as above.

B1: NlpI, soluble version lacking its membrane anchor (natural protein, Escherichia coli)
chain: SNTSWRKSEVLAVPLQPTLQQEVILARMEQILASRALTDDERAQLLYERGVLYDSLGLRALARNDFSQALAIRPDMPEVFNYLGIYLTQAGNFDAAYEAFDSVLELDPTYNYAHLNRGIALYYGGRDKLAQDDLLAFYQDDPNDPFRSLWLYLAEQKLDEKQAKEVLKQHFEKSDKEQWGWNIVEFYLGNISEQTLMERLKADATDNTSLAEHLSETNFYLGKYYLSLGDLDSATALFKLAVANNVHNFVEHRYALLELSLLGQDQDDLAESDQQ
modifications: where used as fl-NlpI in MST: NT647 RED-NHS dye on amines
notes: Outer membrane lipoprotein NlpI of E. coli, soluble version lacking its membrane anchor; Homodimer by AUC; also called fl-NlpI (fluorescently labelled); His-NlpI; source: E. coli BL21 (λDE3), purified (HisTrap HP, Superdex 200)
As for B1, the “stoichiometry N” value in data set [1] was determined as 2. The binding result with PBP7, purified was “binds”. Moreover, the Kd with MepM stood at 152 nM; with PBP4, native, purified it was 177 nM; in data set [2] it was 126 nM.

The term stoichiometry N denotes a count of units in the complex or per binding partner.
